Laboratory results: paper PMC7418559 (2020)

Target: CK2β 1-193 (Homo sapiens, UniProt P67870)
Assay: microscale thermophoresis

Chain of CK2β 1-193 (P67870 1-193): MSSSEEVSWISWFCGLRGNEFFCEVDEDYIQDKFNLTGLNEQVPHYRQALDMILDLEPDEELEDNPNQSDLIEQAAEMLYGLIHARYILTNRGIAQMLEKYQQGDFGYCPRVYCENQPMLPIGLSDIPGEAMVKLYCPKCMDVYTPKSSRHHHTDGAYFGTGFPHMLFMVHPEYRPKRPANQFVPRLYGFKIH

Kd: 0.012 µM
B1: CK2α 1-335 (protein)
chain: MSGPVPSRARVYTDVNTHRPREYWDYESHVVEWGNQDDYQLVRKLGRGKYSEVFEAINITNNEKVVVKILKPVKKKKIKREIKILENLRGGPNIITLADIVKDPVSRTPALVFEHVNNTDFKQLYQTLTDYDIRFYMYEILKALDYCHSMGIMHRDVKPHNVMIDHEHRKLRLIDWGLAEFYHPGQEYNVRVASRYFKGPELLVDYQMYDYSLDMWSLGCMLASMIFRKEPFFHGHDNYDQLVRIAKVLGTEDLYDYIDKYNIELDPRFNDILGRHSRKRWERFVHSENQHLVSPEALDFLDKLLRYDHQSRLTAREAMEHPYFYTVVKDQARMG
modifications: CK2β fluorescently labelled (RED-NHS)
